In the supplement of paper PMC10567573 one finds protein stability index data, which are given here for 94 variants.

B1: TRIM14 (parent)
chain: REQADSCREQLDIMNDLSNRVWSI
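Further: lentivirally expressed fusions sorted by FACS into six bins by GFP to DsRed ratio, PSI derived from sequencing read proportions per bin multiplied by bin number.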

Variants of B1 are the subject of this series. The series can be described thus: protein stability index of a GFP-peptide fusion (GPS, HEK-293T) (PSI 1-6); higher = more stable. As to conditions: c terminus: a fixed tail appended.
REQADSCREQLDIMNDQSNRVWSI [L17Q]: the protein stability index was 2.45.
Take REQADSCREQLDIMNDGSNRVWSI [L17G]: the protein stability index worked out at 2.96.
To REQADSCREQLDIMNDFSNRVWSI [L17F] belongs 2.13; to REQADSCREQLDIMNDNSNRVWSI [L17N], 2.56; to REQADSCREQLDIMNDCSNRVWSI [L17C], 2.53.
Under REQADSCREQLDIMNDHSNRVWSI [L17H] stands 2.71; under REQADSCREQLDIMNDRSNRVWSI [L17R], 2.25.
For REQADSCREQLDIMNDTSNRVWSI [L17T], the protein stability index was determined as 2.7.
For the variant REQADSCREQLDIMNDMSNRVWSI [L17M], the protein stability index is 2.63.
Under REQADSCREQLDIMNDPSNRVWSI [L17P] stands 2.28; under REQADSCREQLDIMNDASNRVWSI [L17A], 2.46; under REQADSCREQLDIMNDYSNRVWSI [L17Y], 2.1.
Take REQADSCREQLDIMNDVSNRVWSI [L17V]: the protein stability index was 2.68.
To REQADSCREQLDIMNDISNRVWSI [L17I] belongs 2.59.
Under REQADSCREQLDIMNDWSNRVWSI [L17W] stands 1.85; under REQADSCREQLDIMNDESNRVWSI [L17E], 3.3; under REQADSCREQLDIMNDKSNRVWSI [L17K], 2.59.
To REQADSCREQLDIMNDSSNRVWSI [L17S] belongs 2.72; to REQADSCRMQLDIMNDLSNRVWSI [E9M], 2.66; to REQADSCRGQLDIMNDLSNRVWSI [E9G], 1.38.
Take REQADSCRNQLDIMNDLSNRVWSI [E9N]: the protein stability index was 2.05.
To REQADSCRRQLDIMNDLSNRVWSI [E9R] belongs 1.85.
Under REQADSCRFQLDIMNDLSNRVWSI [E9F] stands 2.81; under REQADSCRTQLDIMNDLSNRVWSI [E9T], 1.95; under REQADSCRDQLDIMNDLSNRVWSI [E9D], 2.77.
To REQADSCRWQLDIMNDLSNRVWSI [E9W] belongs 3.53; to REQADSCRYQLDIMNDLSNRVWSI [E9Y], 3.54.
As for REQADSCRLQLDIMNDLSNRVWSI [E9L], the protein stability index was 2.75.
Take REQADSCRPQLDIMNDLSNRVWSI [E9P]: the protein stability index amounted to 2.3.
To REQADSCRQQLDIMNDLSNRVWSI [E9Q] belongs 1.53; to REQADSCRHQLDIMNDLSNRVWSI [E9H], 1.48; to REQADSCRIQLDIMNDLSNRVWSI [E9I], 2.44.
To REQADSCRKQLDIMNDLSNRVWSI [E9K] belongs 1.66; to REQADSCRSQLDIMNDLSNRVWSI [E9S], 2.6; to REQADSCREQLDIMNILSNRVWSI [D16I], 1.77.
To REQADSCREQLDIMNPLSNRVWSI [D16P] belongs 1.52; to REQADSCREQLDIMNNLSNRVWSI [D16N], 1.63; to REQADSCREQLDIMNGLSNRVWSI [D16G], 2.25.
As to REQADSCREQLDIMNHLSNRVWSI [D16H], the protein stability index was 1.64.
Under REQADSCREQLDIMNYLSNRVWSI [D16Y] stands 2.01.
Under REQADSCREQLDIMNTLSNRVWSI [D16T] stands 1.99; under REQADSCREQLDIMNLLSNRVWSI [D16L], 1.68.
Under REQADSCREQLDIMNVLSNRVWSI [D16V] stands 1.65; under REQADSCREQLDIMNMLSNRVWSI [D16M], 1.61.
As for REQADSCREQLDIMNQLSNRVWSI [D16Q], the protein stability index amounted to 2.18.
Under REQADSCREQLDIMNWLSNRVWSI [D16W] stands 2.04.
As to REQADSCREQLDIMNSLSNRVWSI [D16S], the protein stability index is 2.19.
To REQADSCREQLDIMNRLSNRVWSI [D16R] belongs 2.85; to REQADSCREQLDIMNALSNRVWSI [D16A], 2.28.
To REQADSCREQLDIMNCLSNRVWSI [D16C] belongs 1.8; to REQADSCREQLDIMNKLSNRVWSI [D16K], 3.35; to REQADSCREQLDIMNELSNRVWSI [D16E], 2.06.
To REQADSCREQLDIMNFLSNRVWSI [D16F] belongs 1.86.
REQADSCREQLDIMCDLSNRVWSI [N15C]: the protein stability index stood at 2.53.
As to REQADSCREQLDIMRDLSNRVWSI [N15R], the protein stability index was found to be 2.17.
In the case of REQADSCREQLDIMDDLSNRVWSI [N15D], the protein stability index worked out at 2.69.
For REQADSCREQLDIMADLSNRVWSI [N15A], the protein stability index turned out to be 2.25.
Under REQADSCREQLDIMMDLSNRVWSI [N15M] stands 2.58.
Under REQADSCREQLDIMIDLSNRVWSI [N15I] stands 2.33; under REQADSCREQLDIMTDLSNRVWSI [N15T], 2.36.
To REQADSCREQLDIMVDLSNRVWSI [N15V] belongs 2.14.
REQADSCREQLDIMYDLSNRVWSI [N15Y]: the protein stability index was 1.96.
To REQADSCREQLDIMQDLSNRVWSI [N15Q] belongs 1.89.
Under REQADSCREQLDIMGDLSNRVWSI [N15G] stands 2.12.
Under REQADSCREQLDIMKDLSNRVWSI [N15K] stands 2.44; under REQADSCREQLDIMEDLSNRVWSI [N15E], 2.76; under REQADSCREQLDIMHDLSNRVWSI [N15H], 2.54.
With REQADSCREQLDIMPDLSNRVWSI [N15P], the protein stability index was 2.18.
To REQADSCREQLDIMWDLSNRVWSI [N15W] belongs 2.68; to REQADSCREQLDIMFDLSNRVWSI [N15F], 2.39.
REQADSCREQLDIMSDLSNRVWSI [N15S]: the protein stability index was determined as 1.94.
For REQADSCREQLDIMLDLSNRVWSI [N15L], the protein stability index was 2.91.
Consider REQADSCREQLDIMNDLSARVWSI [N19A], for which the protein stability index came out at 2.91.
To REQADSCREQLDIMNDLSDRVWSI [N19D] belongs 3.16; to REQADSCREQLDIMNDLSCRVWSI [N19C], 1.58.
Regarding REQADSCREQLDYMNDLSNRVWSI [I13Y], the protein stability index came out at 2.04.
Under REQADSCREQLDMMNDLSNRVWSI [I13M] stands 2.63; under REQADSCREQLDCMNDLSNRVWSI [I13C], 2.93.
For REQADSCREQLDGMNDLSNRVWSI [I13G], the protein stability index turned out to be 2.69.
Under REQADSCREQLDLMNDLSNRVWSI [I13L] stands 1.72.
Under REQADSCREQLDSMNDLSNRVWSI [I13S] stands 2.51; under REQADSCREQLDAMNDLSNRVWSI [I13A], 2.45; under REQADSCREQLDRMNDLSNRVWSI [I13R], 2.43.
Under REQADSCREQLDQMNDLSNRVWSI [I13Q] stands 2.8; under REQADSCREQLDEMNDLSNRVWSI [I13E], 3.46.
With REQADSCREQLDTMNDLSNRVWSI [I13T], the protein stability index came out at 2.74.
To REQADSCREQLDFMNDLSNRVWSI [I13F] belongs 1.9.
Take REQADSCREQLDNMNDLSNRVWSI [I13N]: the protein stability index was 2.92.
To REQADSCREQLDKMNDLSNRVWSI [I13K] belongs 2.19; to REQADSCREQLDVMNDLSNRVWSI [I13V], 2.02.
To REQADSCREQLDDMNDLSNRVWSI [I13D] belongs 3.37; to REQADSCREQLDPMNDLSNRVWSI [I13P], 2.87; to REQADSCREQLDHMNDLSNRVWSI [I13H], 2.88.
Take REQADSCREQLDWMNDLSNRVWSI [I13W]: the protein stability index amounted to 1.76.
